# B1: TMEM59 peptide (residues 268–280), wild type [modified: long spacer (Tds) at the N-terminal end, used for immobilisation; long spacer (Tds) at the N-terminal end, used for immobilisation] [not stated] / GST-HA-ATG16L1(231–607) … (parent)
# chain 1: PLPVEQDDDIEVIVDETSDHTEETSPVRAISRAATKRLSQPAGGLLDSITNIFGRRSVSSFPVPQDNVDTHPGSGKEVRVPATALCVFDAHDGEVNAVQFSPGSRLLATGGMDRRVKLWEVFGEKCEFKGSLSGSNAGITSIEFDSAGSYLLAASNDFASRIWTVDDYRLRHTLTGHSGKVLSAKFLLDNARIVSGSHDRTLKLWDLRSKVCIKTVFAGSSCNDIVCTEQCVMSGHFDKKIRFWDIRSESIVREMELLGKITALDLNPERTELLSCSRDDLLKVIDLRTNAIKQTFSAPGFKCGSDWTRVVFSPDGSYVAAGSAEGSLYIWSVLTGKVEKVLSKQHSSSINAVAWSPSGSHVVSVDKGCKAVLWAQY
# chain 2: YVPSEKLSIYGDL
# Variants of: B1
# Test: peptide microarray
# Settings: with GST-HA-ATG16L1(231–607) [human], parent: 100
Variant,"percent of parent (ligand 200, 50, 20 nM)","percent of parent (ligand 800, 600, 400 nM)"
chain 2 S4K,262 % WT,180 % WT
chain 2 S4G,49 % WT,64 % WT
chain 2 S4T,62 % WT,69 % WT
chain 2 S4V,156 % WT,144 % WT
chain 2 E5A,86 % WT,95 % WT
chain 2 E5R,224 % WT,165 % WT
chain 2 E5F,22 % WT,29 % WT
chain 2 E5N,269 % WT,183 % WT
chain 2 E5S,146 % WT,135 % WT
chain 2 E5K,330 % WT,186 % WT
chain 2 E5G,158 % WT,142 % WT
chain 2 E5D,123 % WT,126 % WT
chain 2 E5I,27 % WT,32 % WT
chain 2 E5L,42 % WT,51 % WT
chain 2 E5Q,214 % WT,167 % WT
chain 2 D12E,,173 % WT
chain 2 D12V,,159 % WT
chain 2 D12I,,129 % WT
chain 2 D12R,,164 % WT
chain 2 D12P,,145 % WT

Variant,"percent of parent (ligand 200, 50, 20 nM)","percent of parent (ligand 800, 600, 400 nM)"
chain 2 D12Y,,180 % WT
chain 2 D12N,,128 % WT
chain 2 D12K,,191 % WT
chain 2 D12Q,,105 % WT
chain 2 D12T,,133 % WT
chain 2 P3W,483 % WT,188 % WT
chain 2 P3I,343 % WT,172 % WT
chain 2 P3F,472 % WT,168 % WT
chain 2 P3M,435 % WT,184 % WT
chain 2 P3N,109 % WT,110 % WT
chain 2 P3R,216 % WT,131 % WT
chain 2 P3Q,254 % WT,152 % WT
chain 2 P3S,184 % WT,138 % WT
chain 2 P3G,143 % WT,131 % WT
chain 2 P3Y,134 % WT,104 % WT
chain 2 P3K,499 % WT,181 % WT
chain 2 P3A,328 % WT,168 % WT
chain 2 S8I,41 % WT,51 % WT
chain 2 S8N,126 % WT,111 % WT
chain 2 S8Q,64 % WT,113 % WT

Variant,"percent of parent (ligand 200, 50, 20 nM)","percent of parent (ligand 800, 600, 400 nM)"
chain 2 S8F,175 % WT,144 % WT
chain 2 S8K,158 % WT,144 % WT
chain 2 S8H,124 % WT,115 % WT
chain 2 S8G,56 % WT,57 % WT
chain 2 S8Y,,137 % WT
chain 2 S8A,55 % WT,59 % WT
chain 2 G11R,,62 % WT
chain 2 G11P,,155 % WT
chain 2 G11Y,,150 % WT
chain 2 G11Q,,31 % WT
chain 2 G11L,,17 % WT
chain 2 G11I,,1 % WT
chain 2 G11A,,18 % WT
chain 2 G11T,,117 % WT
chain 2 G11K,,127 % WT
chain 2 V2N,19 % WT,25 % WT
chain 2 V2D,13 % WT,18 % WT
chain 2 V2H,55 % WT,67 % WT
chain 2 V2Y,80 % WT,90 % WT
chain 2 V2L,145 % WT,134 % WT

# Results, then the variant that gave them:
"percent of parent (ligand 200, 50, 20 nM)","percent of parent (ligand 800, 600, 400 nM)",Variant
352 % WT,187 % WT,chain 2 S4W
163 % WT,157 % WT,chain 2 S4L
78 % WT,73 % WT,chain 2 S4A
110 % WT,110 % WT,chain 2 S4R
63 % WT,65 % WT,chain 2 S4P
33 % WT,29 % WT,chain 2 S4D
31 % WT,32 % WT,chain 2 S4M
88 % WT,94 % WT,chain 2 S4Q
38 % WT,45 % WT,chain 2 S4E
122 % WT,106 % WT,chain 2 S4H
176 % WT,155 % WT,chain 2 S4I
1 % WT,1 % WT,chain 2 S4F
38 % WT,30 % WT,chain 2 S4N
320 % WT,188 % WT,chain 2 S4Y
261 % WT,179 % WT,chain 2 E5T
92 % WT,97 % WT,chain 2 E5P
47 % WT,52 % WT,chain 2 E5V
105 % WT,109 % WT,chain 2 E5W
158 % WT,148 % WT,chain 2 E5Y
217 % WT,162 % WT,chain 2 E5M
303 % WT,183 % WT,chain 2 E5H
,177 % WT,chain 2 D12W
,128 % WT,chain 2 D12S
,110 % WT,chain 2 D12L
,93 % WT,chain 2 D12M
,179 % WT,chain 2 D12H
,158 % WT,chain 2 D12G

"percent of parent (ligand 200, 50, 20 nM)","percent of parent (ligand 800, 600, 400 nM)",Variant
,131 % WT,chain 2 D12A
,138 % WT,chain 2 D12F
518 % WT,191 % WT,chain 2 P3T
493 % WT,189 % WT,chain 2 P3L
334 % WT,176 % WT,chain 2 P3V
104 % WT,107 % WT,chain 2 P3D
225 % WT,145 % WT,chain 2 P3H
89 % WT,86 % WT,chain 2 P3E
50 % WT,78 % WT,chain 2 S8P
,60 % WT,chain 2 S8V
6 % WT,11 % WT,chain 2 S8E
7 % WT,9 % WT,chain 2 S8D
56 % WT,74 % WT,chain 2 S8L
,179 % WT,chain 2 S8W
54 % WT,67 % WT,chain 2 S8T
21 % WT,27 % WT,chain 2 S8M
113 % WT,115 % WT,chain 2 S8R
,43 % WT,chain 2 G11F
,140 % WT,chain 2 G11N
,165 % WT,chain 2 G11W
,146 % WT,chain 2 G11D
,103 % WT,chain 2 G11S
,156 % WT,chain 2 G11H
,129 % WT,chain 2 G11E
,13 % WT,chain 2 G11V
,40 % WT,chain 2 G11M

# — article PMC7679444
